EC50 data for two molecules are collected here from patent publication US20250121064A1 (CARSGEN LIFE SCIENCES, published 2025).

The assay has as its target T1, human GPRC5D on cells (human, UniProt Q9NZD1 1-345).
T1 construct: MM.1S and NCI-H929 cells express it endogenously; also called huGPRC5D; CHOK1-huGPRC5D
Description: flow cytometry on CHOK1-huGPRC5D cells. Background: Flow cytometry measures light scatter and fluorescence of single cells or particles in a stream.

T1 sequence (Q9NZD1 whole entry): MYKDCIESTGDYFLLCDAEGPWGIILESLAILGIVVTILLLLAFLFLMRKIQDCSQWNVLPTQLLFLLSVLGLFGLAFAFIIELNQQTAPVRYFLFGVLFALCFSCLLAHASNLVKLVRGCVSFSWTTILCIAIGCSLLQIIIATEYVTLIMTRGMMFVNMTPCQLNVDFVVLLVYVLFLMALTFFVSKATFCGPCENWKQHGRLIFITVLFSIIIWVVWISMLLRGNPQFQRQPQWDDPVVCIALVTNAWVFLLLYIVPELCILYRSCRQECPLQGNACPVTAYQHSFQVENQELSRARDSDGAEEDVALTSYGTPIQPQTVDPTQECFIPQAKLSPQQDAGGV

B1: hybridoma antibody AB2 (IgG3-k) (antibody, V domains shown)
VH: VVKLVESGGGLVQPGGSLKLSCAASGFTFSNYGMSWVRQTPDTRLELVATINSNGGNTYYPDSVKGRFTISRDNAKNTLYLQMSSLKSEDTAIYYCVRAYSLTMDYWGQGTSVTVSS
VL: DVVMTQTPLSLPVSLGDQASISCRSSQSLVHSNGNTYLHWYLQKPGQSPKLLIYKVSNRFSGVPDRFSGSGSGTDFTLKIIRVEAEDLGVYFCSQSTHVPPTFRAGTKLELKR
notes: Mouse hybridoma mIgG, IgG3 kappa
Regarding B1, it took 1.93 nM to reach a half-maximal effect (EC50).

B2: hybridoma antibody AB1 (IgG2b-k) (antibody, V domains shown)
VH: EVQLQQSGPEVVKPGASMKISCKASGYSFTGYTMNWVKQSHGKNFEWIGLINPYNGGTSYNQKFKGKATLTVDKSSSTAYMELLSLTSEDSAVYYCTRGGFRAWFAFWGQGTLVTVSA
VL: DIQMTQSPSSLSASLGERVSLTCRASQDIGSNLNWLQQEPDGTIKRLIYATSILDSGVPKRFSGSRSGSDYSLTISSLESEDFVDYYCLQYATFPNTFGGGTKLEIKR
notes: Mouse hybridoma mIgG, IgG2b kappa
For the molecule B2, the EC50 – broadly, the concentration that produces a half-maximal response – was determined as 1.69 nM.
